Test results as given in patent US20180256699A1 (University of Texas, published 2018).
Residue numbers refer to the chain shown, from its start. Like-named read-outs stand apart in the source and are kept apart here.

Key:
[1] = biological target: T1, Bordetella adenylate cyclase toxin (ACT), full-length, acylated (Bordetella pertussis, UniProt J7QLC0 1-1706); experiment: cell-based or functional assay
[2] = biological target: T2, CAT400, catalytic domain of ACT, residues 1-400 (Bordetella pertussis, UniProt J7QLC0 1-400); experiment: ELISA, murine αMβ2 integrin coated, domain serially diluted
Protocol: (§1) To assess non-specific binding, control wells were not coated with αMβ₂ receptor but blocked with M-PBST only.
(§2) Recombinant murine αMβ₂ integrin (R&D Systems) was coated at 1 μg/mL in PBS at 4° C. overnight, and blocked with M-PBST.

[3] = biological target: HP1096, hydrophobic domain of ACT, residues 399-1096, MBP fusion, non-acylated (Bordetella pertussis, UniProt J7QLC0 399-1096); experiment: as above
Protocol: as §1, §2

[4] = biological target: T3, HP1096*, hydrophobic domain of ACT, residues 399-1096, MBP fusion, acylated (Bordetella pertussis, UniProt J7QLC0 399-1096); experiment: as above
Protocol: as §1, §2

[5] = biological target: T4, RTX985, RTX domain of ACT, residues 985-1706 (Bordetella pertussis, UniProt J7QLC0 985-1706); experiment: as above
Protocol: as §1, §2

[6] = biological target: T5, RTX751, RTX domain of ACT, residues 751-1706, non-acylated (Bordetella pertussis, UniProt J7QLC0 751-1706); experiment: method and antibody format not stated
T5 construct: Expressed without CyaC

[7] = biological target: T4, RTX985, RTX domain of ACT, residues …
[8] = biological target: T5, RTX751, RTX domain of ACT, residues …
[9] = biological target: T5, RTX751, RTX domain of ACT, residues …; experiment: ELISA: Bp-RTX751 coated, M2B10 IgG titrated
Br-RTX751 = biological target: T6, Br-RTX751 (Bordetella bronchiseptica); experiment: ELISA: Br-RTX751 coated, M2B10 IgG titrated
T6 construct: fragment

Bpp-RTX751 = biological target: T7, Bpp-RTX751 (Bordetella parapertussis); experiment: ELISA: Bpp-RTX751 coated, M2B10 IgG titrated
T7 construct: fragment

[10] = biological target: T1, Bordetella adenylate cyclase toxin …; experiment: ELISA: ACT coated, M2B10 IgG titrated from 1 nM, detected with anti-human Fc-HRP
[11] = biological target: T2, CAT400, catalytic domain of ACT, …; experiment: ELISA: CAT400 coated equimolar with ACT, M2B10 IgG titrated from 1 nM, detected with anti-human Fc-HRP
[12] = biological target: T3, HP1096*, hydrophobic domain of ACT, …; experiment: ELISA: HP1096* coated equimolar with ACT, M2B10 IgG titrated from 1 nM, detected with anti-human Fc-HRP
[13] = biological target: T2, CAT400, catalytic domain of ACT, …; experiment: ELISA: CAT400 coated equimolar with ACT, M1H5 IgG titrated from 1 nM, detected with anti-human Fc-HRP
[14] = biological target: T3, HP1096*, hydrophobic domain of ACT, …; experiment: ELISA: HP1096* coated equimolar with ACT, M1H5 IgG titrated from 1 nM, detected with anti-human Fc-HRP

B1: M1F10 single-chain antibody fragment (scAb) (scFv, not shown: a dimerising Fc or GST)
scFv: DIVMTQSPASLAVSLGQRATISCRASESVGNYGISFTNWYQQKPGQPPKLLIYAASNLESGIPARFSGSGSGTDFTLNIHPVEEEDAATYYCQQSNEDPYTFGGGTKLEIKRGGGGGGSGGGGSGGGGSGGGGSEVKLVESGGDLVKPGGSLKLSCAASGFTFSSYGMSWVRQTPDKRLEWVATISSGGTYTYYPDSVKGRFTISRDNAKNTLYLQMSSLKSEDTAMYYCAREIMRGGGYYFDYWGQGTTLTVSS
With B1 as the binder, how does the “reduction of intracellular cAMP level in J774A.1 cells, scAb at 160-fold molar excess over ACT” value (from here on “reduction … at 160-fold molar excess over ACT”) [1] read?
Its value is > 90%.

B2: Recombinant soluble murine αMβ2 integrin (R&D Systems) (receptor)
chain 1: FNLDTEHPMTFQENAKGFGQNVVQLGGTSVVVAAPQEAKAVNQTGALYQCDYSTSRCHPIPLQVPPEAVNMSLGLSLAVSTVPQQLLACGPTVHQNCKENTYVNGLCYLFGSNLLRPPQQFPEALRECPQQESDIVFLIDGSGSINNIDFQKMKEFVSTVMEQFKKSKTLFSLMQYSDEFRIHFTFNDFKRNPSPRSHVSPIKQLNGRTKTASGIRKVVRELFHKTNGARENAAKILVVITDGEKFGDPLDYKDVIPEADRAGVIRYVIGVGNAFNKPQSRRELDTIASKPAGEHVFQVDNFEALNTIQNQLQEKIFAIEGTQTGSTSSFEHEMSQEGFSASITSNGPLLGSVGSFDWAGGAFLYTSKDKVTFINTTRVDSDMNDAYLGYASAVILRNRVQSLVLGAPRYQHIGLVVMFRENFGTWEPHTSIKGSQIGSYFGASLCSVDMDADGNTNLILIGAPHYYEKTRGGQVSVCPLPRGRARWQCEALLHGDQGHPWGRFGAALTVLGDVNGDKLTDVAIGAPGEQENQGAVYIFYGASIASLSASHSHRIIGAHFSPGLQYFGQSLSGGKDLTMDGLMDLAVGAQGHLLLLRAQPVLRLEATMEFSPKKVARSVFACQEQVLKNKDAGEVRVCLRVRKNTKDRLREGDIQSTVTYDLALDPVRSRIRAFFDETKNNTRRRTQVFGLMQKCETLKLILPDCVDDSVSPIILRLNYTLVGEPLRSFGNLRPVLAMDAQRFFTAMFPFEKNCGNDSICQDDLSITMSAMGLDTLVVGGPQDFNMSVTLRNDGEDSYGTQVTVYYPSGLSYRKDSASQNPLTKKPWFVKPAESSSSSEGHGALKSTTWNINHPIFPANSEVTFNVTFDVDSHASFGNKLLLKAIVASENNMSRTHKTKFQLELPVKYAIYMIVTSDESSIRYLNFTASEMTSKVIQHQYQFNNLGQRSLPVSVVFWIPVQINNVTVWDHPQVIFSQNLSSACHTEQKSPPHSNFRDQLERTPVLNCSVAVCKRIQCDLPSFNTQEIFNVTLKGNLSFDWYIKTSHGHLLLVSSTEILFNDSAFALLPGQESYVRSKTETKVEPYEVHN
chain 2: QECTKYKVSSCRDCIQSGPGCSWCQKLNFTGPGEPDSLRCDTRAQLLLKGCPADDIMDPRSIANPEFDQRGQRKQLSPQKVTLYLRPGQAAAFNVTFRRAKGYPIDLYYLMDLSYSMLDDLNNVKKLGGDLLQALNEITESGRIGFGSFVDKTVLPFVNTHPEKLRNPCPNKEKACQPPFAFRHVLKLTDNSNQFQTEVGKQLISGNLDAPEGGLDAIMQVAACPEEIGWRNVTRLLVFATDDGFHFAGDGKLGAILTPNDGRCHLEDNMYKRSNEFDYPSVGQLAHKLSESNIQPIFAVTKKMVKTYEKLTEIIPKSAVGELSDDSSNVVQLIKNAYYKLSSRVFLDHSTLPDTLKVTYDSFCSNGASSIGKSRGDCDGVQINNPVTFQVKVMASECIQEQSFVIRALGFTDTVTVQVRPQCECQCRDQSREQSLCGGKGVMECGICRCESGYIGKNCECQTQGRSSQELERNCRKDNSSIVCSGLGDCICGQCVCHTSDVPNKEIFGQYCECDNVNCERYNSQVCGGSDRGSCNCGKCSCKPGYEGSACQCQRSTTGCLNARLVECSGRGHCQCNRCICDEGYQPPMCEDCPSCGSHCRDNHTSCAECLKFDKGPFEKNCSVQCAGMTLQTIPLKKKPCKERDSEGCWITYTLQQKDGRNIYNIHVEDSLECVKGPN
notes: extracellular domain; also called αMβ2 receptor; soluble αMβ2 integrin
Which results are given for B2?
binding result [2]: no binding; binding result [3]: no binding; binding result [4]: no binding; binding result [5]: no binding

B3: M2B10 antibody (format not stated) (antibody, V domains shown)
VH: EVQLQQSGAELVRPGTSVKVSCKASGYAFTNYLIEWVKQRPGQGLEWIGVINPGIGNTNYNEKFKGKATLTADKSSSTVYMQLSSLTSDDSAVYFCARGLNYGSSQHWYFDVWGAGTSVTVSS
VL: DIVMTQSPAILSASLGERVTMTCTASSSVSSSYLHWYQQKPGSSPKLWIYSTSNLASGVPARFSGSGSGTSYSLTISSMEAEDAATYYCHQYHRSPPTFGAGTKLEIKR
B3 was tested. Which “IC50, J774A.1 macrophage cell line intoxication assay with 125 ng/mL ACT (0.7 nM)” value [1] did it give?
The value was 6000 pM.

And the Kd [6]?
The Kd was ~1200 pM.

B4: M2C2 antibody (format not stated) (antibody, V domains shown)
VH: QVQLQQSGPELGKPGASVKISCKASGYLFTGYNIYWVKQSHRKSLEWIGYINPYNGDTSYNQKSKGKATLTVDRSSSTAYMHLNSLTSEDSAIYFCARGYYVRPLDYWGQGTTLTVSS
VL: B3 VL with M4L, L11M, A101G
For B4, which “IC50, J774A.1 macrophage cell line intoxication assay with 125 ng/mL ACT (0.7 nM)” value [1] is on record?
Its value is 8100 pM.

And the Kd [6]?
Its Kd is ~1500 pM.

B5: M2B10 chimeric IgG1/κ antibody (antibody, V domains shown)
VH: B3 VH
VL: B3 VL
notes: also called M2B10 IgG; not shown: human IgG1 constant domains (IgG-Abvec vector); human kappa constant domain (Igκ-Abvec vector)
B5 was tested. Which “EC50 (read off the curve)” value [7] did it give?
The value was ~40 pM.

What about the “EC50 (read off the curve)” value [8] of the same binder?
Its value is ~40 pM.

What about the “EC50 (read off the curve)” value [9] of the same binder?
The value was ~50 pM.

What about the “EC50 (read off the curve)” value (Br-RTX751) of the same binder?
The value was ~50 pM.

And the “EC50 (read off the curve)” value (Bpp-RTX751)?
The value was ~50 pM.

What about the “EC50 (read off the curve)” value [10] of the same binder?
Its value is ~40 pM.

Does B5 bind [11]?
Result: no binding (tested: 1 nM)

Does B5 bind [12]?
Result: no binding (tested: 1 nM)

B6: M1H5 chimeric IgG1/κ antibody (antibody, V domains shown)
VH: EVNLVESGGDLVKPGGSLKLSCAASGFTFSSYGMSWVRQTPDKRLEWVATISSGGTYTYYPDSVKGRFTISRDNAKNTLYLQMSSLKSEDTAMYYCAREIMRGGGYYFDYWSQGTTLTVSS
VL: DIQMIQSTSSLSASLGDRVTISCRASQDISNYLNWYQQKPDGTVKLLIYYTSRLHSGVPSRFSGSGSGTDYSLTISNLEQEDIATYFCQQGNTLPYTFGGGTKLEIKR
notes: also called M1H5 IgG; not shown: human IgG1 constant domains (IgG-Abvec vector); human kappa constant domain (Igκ-Abvec vector)
Does B6 bind [13]?
Result: no binding (tested: 1 nM)

Does B6 bind [14]?
Result: no binding (tested: 1 nM)

B7: M2C2 single-chain antibody fragment (scAb) (scFv, not shown: a dimerising Fc or GST)
scFv: DIVLTQSPAIMSASLGERVTMTCTASSSVSSSYLHWYQQKPGSSPKLWIYSTSNLASGVPARFSGSGSGTSYSLTISSMEAEDAATYYCHQYHRSPPTFGGGTKLEIKRGGGGGGSGGGGSGGGGSGGGGSQVQLQQSGPELGKPGASVKISCKASGYLFTGYNIYWVKQSHRKSLEWIGYINPYNGDTSYNQKSKGKATLTVDRSSSTAYMHLNSLTSEDSAIYFCARGYYVRPLDYWGQGTTLTVSS
With B7 as the binder, how does the “reduction … at 160-fold molar excess over ACT” value [1] read?
The value was > 90%.

B8: M1E2 single-chain antibody fragment (scAb) (scFv, not shown: a dimerising Fc or GST)
scFv: DIVMTQSPAIMSASLGERVTMTCTASSSVSSSYLHWYQQKPGSSPKLWIYSTSNLASGVPARFSGSGSGTSYSLTISSMEAEDAATYYCHQYHRSPPTFGGGTKLEIKRGGGGGGSGGGGSGGGGSGGGGSQVQLKQSGAELVRPGTSVKVSCKASGYAFTNYLIEWVKQRPGQGLEWIGVINPGIGNTNYNEKFKGKATLTADKSSSTVYMQLSSLTSDDSAVYFCARGLNYGSSQHWYFDVWGAGTTVTVSS
B8 was tested. Which “reduction … at 160-fold molar excess over ACT” value [1] did it give?
The value was > 90%.

B9: M2B10 single-chain antibody fragment (scAb) (scFv)
scFv: B8 scFv with M11L, G101A, Q132E, K136Q, T249S
How did the “reduction … at 160-fold molar excess over ACT” value [1] turn out when B9 was run?
Its value is > 90%.

B10: M1H1 single-chain antibody fragment (scAb) (scFv, not shown: a dimerising Fc or GST)
scFv: B8 scFv with I107L, K136Q, S206F, V210A, Y211S, T249S
B10 was tested. Which “reduction … at 160-fold molar excess over ACT” value [1] did it give?
Its value is > 90%.
